The target in the assay is extraviral domain of SARS-CoV-2 spike protein (aa 1-1213) (SARS-CoV-2) (UniProt P0DTC2). The assay is described as follows: SPR. For orientation: Surface plasmon resonance follows binding to a sensor surface in real time, without labels.

pKd: −log10 of the molar value. Values joined by “and” are separate entries in the source; they are usually repeats but may differ in a detail not shown here. Equal entries are not always repeated.

By pKd is commonly meant −log10 of the Kd, conventionally taken in molar units. Lower therefore signals a large Kd. Usually koff stands for the first-order rate constant of dissociation. Lower therefore signals a long-lived complex. The kon is the rate constant with which the complex forms. A high value points to faster complex formation. On to “pineapple-derived jacalin-related lectin AcmJRL (natural protein)”, for which the pKd is 5.48 and 4.95; the koff amounted to 0.0034 s⁻¹; the on-rate (kon) stood at 1060 M⁻¹ s⁻¹.

The values are drawn from article PMC10107836 (Chembiochem, 2022).
